Measured values taken from paper PMC7769003.

Molecular target: Recombinant VEEV p62-E1 protein (TrD strain) (Venezuelan equine encephalitis virus (TrD strain))
Experiment: SPR

Work on “HRV-cleaved monovalent Ldlrad3-D1 (from UniProt A2AR95 18-70) (domain or fragment)” yielded a Kd of 209 nM.
